Residue numbers refer to the chain shown, from its start. Names may count otherwise.
B1: bacterially expressed LIC1-T213D (natural protein, rat, UniProt Q9QXU8 1-523, looked up)
chain: MAAVGRVGSFGSSPPGLASTYASGPLANELASGSGGPAAGDDEDGQNLWSRILREVSTRSRSKLPTGKNVLLLGEDGAGKTSLIRRIQGIEEYKKGRGLEYLYLNVHDEDRDDQTRCNVWILDGDLYHKGLLKFSLDALSLRDTLVMLVVDMSKPWTALDSLQKWASVVREHVDKLKIPPEEMKEMEQKLIRDFQEYVEPGEDFPASPQRRADAAQEDRDDSVVLPLGADTLTHNLGLPVLVVCTKCDAISVLEKEHDYRDEHFDFIQSHIRKFCLQYGAALIYTSVKENKNIDLVYKYIVQKLYGFPYKIPAVVVEKDAVFIPAGWDNDKKIGILHENFQTLKIEDNFEDIITKPPVRKFVHEKEIMAEDDQVFLMKLQSLLAKQPPTAAGRPVDASPRVPGGSPRTPNRSVSSNVASVSPIPAGSKKIDPNMKAGATSEGVLANFFNSLLSKKTGSPGGPGVGGSPGGGAAGASTSLPPSAKKSGQKPVLSDVHAELDRITRKPASVSPTTPPSPTEGEAS
B2: bacterially expressed full-length LIC1 phosphorylated with PKA catalytic subunit (natural protein, rat, UniProt Q9QXU8 1-523, looked up)
chain: B1 chain with D213T
modifications: phosphorylated by PKA; T213 identified as the major PKA site
B3: bacterially expressed full-length IC1A phosphorylated with PKA catalytic subunit (natural protein, rat, UniProt Q63100 1-643, looked up)
chain: MSDKSDLKAELERKKQRLAQIREEKKRKEEERKKKEADMQQKKEPVPDDSDLDRKRRETEALLQSIGISPEPPLVQPLHFLTWDTCYFHYLVPTPMSPSSKSVSTPSEAGSQDDLGPLTRTLQWDTDPSVLQLQSDSELGRRLNKLGVSKVTQVDFLPREVVSYSKETQTPLATHQSEEDEEDEEMVEPKVGHDSELENQDKKQETKEAPPRELTEEEKQQILHSEEFLIFFDRTIRVIERALAEDSDIFFDYSGRELEEKDGDVQAGANLSFNRQFYDEHWSKHRVVTCMDWSLQYPELMVASYSNNEDAPHEPDGVALVWNMKFKKTTPEYVFHCQSSVMSVCFARFHPNLVVGGTYSGQIVLWDNRSHRRTPVQRTPLSAAAHTHPVYCVNVVGTQNAHNLITVSTDGKMCSWSLDMLSTPQESMELVYNKSKPVAVTGMAFPTGDVNNFVVGSEEGTVYTACRHGSKAGIGEVFEGHQGPVTGINCHMAVGPIDFSHLFVTSSFDWTVKLWTTKHNKPLYSFEDNADYVYDVMWSPVHPALFACVDGMGRLDLWNLNSDTEVPTASVAIEGAYALNRVRWAQGGKEVAVGDSEGRIWIYDVGELAVPHNDEWTRFARTLVEIRANRADSEEEGAVELAA
modifications: phosphorylated by PKA (the paper names IC1-T59 as the sole PKA site)

Tests used:
[1] = target: RILP (Rab7-interacting lysosomal protein) 1-185 (UniProt Q96NA2); assay: GST-RILP 1-185 pull-down from cell lysate; conditions: reference: GFP-LIC1 wild type; sites T213
[2] = target: adenovirus serotype 5 hexon capsid subunit (Ad5 (adenovirus serotype 5), UniProt P04133 1-952); assay: pull-down
adenovirus serotype 5 hexon capsid subunit, sequence (P04133 whole entry): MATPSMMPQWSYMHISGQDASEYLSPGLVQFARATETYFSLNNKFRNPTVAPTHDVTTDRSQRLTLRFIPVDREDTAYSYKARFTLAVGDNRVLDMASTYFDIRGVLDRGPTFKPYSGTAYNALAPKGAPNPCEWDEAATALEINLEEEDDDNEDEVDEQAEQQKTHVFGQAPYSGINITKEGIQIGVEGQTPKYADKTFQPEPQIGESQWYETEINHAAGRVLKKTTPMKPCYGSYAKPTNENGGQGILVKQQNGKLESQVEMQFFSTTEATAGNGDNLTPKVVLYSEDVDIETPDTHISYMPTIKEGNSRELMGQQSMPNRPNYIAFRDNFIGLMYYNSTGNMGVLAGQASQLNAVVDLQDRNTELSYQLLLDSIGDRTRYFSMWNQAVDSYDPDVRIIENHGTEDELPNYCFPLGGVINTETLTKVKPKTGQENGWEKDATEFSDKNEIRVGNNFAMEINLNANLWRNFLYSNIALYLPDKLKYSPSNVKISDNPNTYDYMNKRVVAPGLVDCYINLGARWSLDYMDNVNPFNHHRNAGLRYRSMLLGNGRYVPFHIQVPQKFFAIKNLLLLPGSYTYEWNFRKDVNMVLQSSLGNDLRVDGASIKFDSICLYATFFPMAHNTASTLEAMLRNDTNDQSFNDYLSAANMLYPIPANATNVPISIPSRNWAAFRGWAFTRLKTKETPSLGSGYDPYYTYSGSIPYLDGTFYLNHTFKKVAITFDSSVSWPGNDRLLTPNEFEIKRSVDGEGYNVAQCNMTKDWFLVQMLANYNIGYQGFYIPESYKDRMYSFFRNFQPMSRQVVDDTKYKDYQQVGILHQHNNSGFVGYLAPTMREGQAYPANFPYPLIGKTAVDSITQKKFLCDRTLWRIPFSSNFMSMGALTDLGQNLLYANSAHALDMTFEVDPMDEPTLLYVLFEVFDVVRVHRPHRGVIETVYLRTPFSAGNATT

| Molecule | binding against the reference [1] | binding result [2] |
| --- | --- | --- |
| dynein light intermediate chain 1 (LIC1) (from UniProt Q9QXU8) GFP-LIC1-T213A | stronger | – |
| B1 | – | binds |
| B2 | – | binds |
| B3 | – | binds |
